2 molecules from publication PMC11100747 (bioRxiv, 2024) can be followed below.

One assay addresses T1, Gdi1 (yeast, UniProt P39958 1-451).
T1 sequence: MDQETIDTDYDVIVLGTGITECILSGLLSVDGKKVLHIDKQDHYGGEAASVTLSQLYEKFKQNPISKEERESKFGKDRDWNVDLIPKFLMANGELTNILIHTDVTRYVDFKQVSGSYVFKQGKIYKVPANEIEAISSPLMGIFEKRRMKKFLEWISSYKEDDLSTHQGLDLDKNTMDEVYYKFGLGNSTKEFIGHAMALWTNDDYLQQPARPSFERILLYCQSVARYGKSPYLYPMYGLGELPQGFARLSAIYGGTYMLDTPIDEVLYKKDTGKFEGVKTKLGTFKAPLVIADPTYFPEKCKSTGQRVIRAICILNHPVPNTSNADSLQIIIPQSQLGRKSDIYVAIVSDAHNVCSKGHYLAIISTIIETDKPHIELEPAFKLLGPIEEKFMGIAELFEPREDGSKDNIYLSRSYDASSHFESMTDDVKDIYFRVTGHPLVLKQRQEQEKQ
The experiment in a line: SEC. In general terms: In gel filtration, larger molecules generally elute earlier.

A further assay deals with T2, Ric1 (S. cerevisiae, UniProt P40395 1-1056).
T2 sequence: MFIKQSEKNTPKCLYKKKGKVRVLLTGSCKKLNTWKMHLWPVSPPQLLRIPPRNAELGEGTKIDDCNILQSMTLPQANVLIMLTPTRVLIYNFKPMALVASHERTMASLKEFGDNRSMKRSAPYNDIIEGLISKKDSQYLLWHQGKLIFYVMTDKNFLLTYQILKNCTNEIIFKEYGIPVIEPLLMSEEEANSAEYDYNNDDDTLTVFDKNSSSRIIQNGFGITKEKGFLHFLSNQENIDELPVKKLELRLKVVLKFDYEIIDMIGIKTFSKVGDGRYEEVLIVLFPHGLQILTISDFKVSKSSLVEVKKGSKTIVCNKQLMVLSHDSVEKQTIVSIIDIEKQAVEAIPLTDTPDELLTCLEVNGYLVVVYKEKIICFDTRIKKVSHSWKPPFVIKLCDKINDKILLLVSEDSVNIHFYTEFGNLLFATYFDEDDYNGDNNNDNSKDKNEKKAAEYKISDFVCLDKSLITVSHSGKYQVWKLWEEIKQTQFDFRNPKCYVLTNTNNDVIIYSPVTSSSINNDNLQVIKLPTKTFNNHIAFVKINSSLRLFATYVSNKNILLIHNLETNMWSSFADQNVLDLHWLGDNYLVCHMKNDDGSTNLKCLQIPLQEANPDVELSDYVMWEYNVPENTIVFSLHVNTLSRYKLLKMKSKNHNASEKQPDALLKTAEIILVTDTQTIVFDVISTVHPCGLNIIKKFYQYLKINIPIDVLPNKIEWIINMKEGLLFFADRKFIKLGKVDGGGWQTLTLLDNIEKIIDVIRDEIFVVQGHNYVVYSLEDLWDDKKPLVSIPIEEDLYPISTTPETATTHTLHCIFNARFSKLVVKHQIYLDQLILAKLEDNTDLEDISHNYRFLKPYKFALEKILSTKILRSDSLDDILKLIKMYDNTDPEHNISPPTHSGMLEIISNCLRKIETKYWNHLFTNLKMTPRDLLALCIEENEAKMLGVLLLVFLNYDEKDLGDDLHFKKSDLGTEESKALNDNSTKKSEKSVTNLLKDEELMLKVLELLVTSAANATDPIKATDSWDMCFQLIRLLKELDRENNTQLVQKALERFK
Nature of the assay: cryo-EM structure.

B1: prenylated Rab6-mantGDP (natural protein)
chain: MSRSGKSLTKYKIVFLGEQGVGKTSLITRFMYDTFDDHYQATIGIDFLSKTMYLDDKTIRLQLWDTAGQERFRSLIPSYIRDSRVAIIVYDITKRKSFEYIDKWIEDVKNERGDENVILCIVGNKSDLSDERQISTEEGEKKAKLLGAKIFMETSTKAGYNVKALFKKIAKSLPEFQNSESTPLDSENANSANQNKPGVIDISTAEEQEQSACQC
modifications: C-terminal cysteines prenylated (geranylgeranyl)
As for B1, the binding result with Gdi1 is “binds”.

B2: Rgp1 (natural protein)
chain: MRAHRIDTFLIRENIKLEIIHESNSYFGGEHISIAFRFKHLGSQHELFNYKEKLLTVDKAVEEKLEQQAKVQDDGEGTMENQTWSLKSLLGAFKRTGEPEESVDVDNMKMLNESKMLREKIQKQMYFHQPVTLISGYVQISGVFQYDSEVISESKFKQDEVKMVGLDIVPGHTTNSVLALEDGEHFKGKRNLTNYLNSDYTNVTNGLLFSESGSRGRTGTYNERTLMISNDTSIKTLPLLLIPQTLLFSEISLEPGEVRTFYFKSTKLPKDICPSYSSSKVASINYTLEVGADVLSDDNIEKFSNRVPITIAPYISSNAEQYTSRLDKPAIILKTGNIKELKPRLFTRKVSTASAVSFGRRKSSIIDIDSPLEDNEFVKRVKKNFIELVESNQNVSRDIDELIDLQMGVQFGKDEDSSDPEPNDSHFSNEMVTSAESSLRSDAVTKRRKSYSVRDNISNLEQKMWNDCSLVKSDENSNLLPQLINLQNAYQINRNNETMAKVSLSAPFYKTTDDINLVIELDPITTPLLKVTSLTVSLESFEIINPKYKTEGKGIGSKPKGNSVYEKHFICFDECKSVSVKLLPPRSPTNQITGQFKTDVFQHKWMIGLKFVIIAKTESITLDQFYEDKKGILFHSKENLEGEEFTCYVPIPILCTSEDFMGW
For B2, the binding result with Ric1 is listed as “binds”.
